B1: Splicing factor 45 (Homo sapiens), Q96I25 (parent)
chain: MSLYDDLGVETSDSKTEGWSKNFKLLQSQLQVKKAALTQAKSQRTKQSTVLAPVIDLKRGGSSDDRQIVDTPPHVAAGLKDPVPSGFSAGEVLIPLADEYDPMFPNDYEKVVKRQREERQRQRELERQKEIEEREKRRKDRHEASGFARRPDPDSDEDEDYERERRKRSMGGAAIAPPTSLVEKDKELPRDFPYEEDSRPRSQSSKAAIPPPVYEEQDRPRSPTGPSNSFLANMGGTVAHKIMQKYGFREGQGLGKHEQGLSTALSVEKTSKRGGKIIVGDATEKDASKKSDSNPLTEILKCPTKVVLLRNMVGAGEVDEDLEVETKEECEKYGKVGKCVIFEIPGAPDDEAVRIFLEFERVESAIKAVVDLNGRYFGGRVVKACFYNLDKFRVLDLAEQV

Columns and labels:
SF3B1, O75533-1 = variants of: B1; settings: with SF3B1, O75533-1
SF3B1, O75533-1, sequence (O75533 whole entry): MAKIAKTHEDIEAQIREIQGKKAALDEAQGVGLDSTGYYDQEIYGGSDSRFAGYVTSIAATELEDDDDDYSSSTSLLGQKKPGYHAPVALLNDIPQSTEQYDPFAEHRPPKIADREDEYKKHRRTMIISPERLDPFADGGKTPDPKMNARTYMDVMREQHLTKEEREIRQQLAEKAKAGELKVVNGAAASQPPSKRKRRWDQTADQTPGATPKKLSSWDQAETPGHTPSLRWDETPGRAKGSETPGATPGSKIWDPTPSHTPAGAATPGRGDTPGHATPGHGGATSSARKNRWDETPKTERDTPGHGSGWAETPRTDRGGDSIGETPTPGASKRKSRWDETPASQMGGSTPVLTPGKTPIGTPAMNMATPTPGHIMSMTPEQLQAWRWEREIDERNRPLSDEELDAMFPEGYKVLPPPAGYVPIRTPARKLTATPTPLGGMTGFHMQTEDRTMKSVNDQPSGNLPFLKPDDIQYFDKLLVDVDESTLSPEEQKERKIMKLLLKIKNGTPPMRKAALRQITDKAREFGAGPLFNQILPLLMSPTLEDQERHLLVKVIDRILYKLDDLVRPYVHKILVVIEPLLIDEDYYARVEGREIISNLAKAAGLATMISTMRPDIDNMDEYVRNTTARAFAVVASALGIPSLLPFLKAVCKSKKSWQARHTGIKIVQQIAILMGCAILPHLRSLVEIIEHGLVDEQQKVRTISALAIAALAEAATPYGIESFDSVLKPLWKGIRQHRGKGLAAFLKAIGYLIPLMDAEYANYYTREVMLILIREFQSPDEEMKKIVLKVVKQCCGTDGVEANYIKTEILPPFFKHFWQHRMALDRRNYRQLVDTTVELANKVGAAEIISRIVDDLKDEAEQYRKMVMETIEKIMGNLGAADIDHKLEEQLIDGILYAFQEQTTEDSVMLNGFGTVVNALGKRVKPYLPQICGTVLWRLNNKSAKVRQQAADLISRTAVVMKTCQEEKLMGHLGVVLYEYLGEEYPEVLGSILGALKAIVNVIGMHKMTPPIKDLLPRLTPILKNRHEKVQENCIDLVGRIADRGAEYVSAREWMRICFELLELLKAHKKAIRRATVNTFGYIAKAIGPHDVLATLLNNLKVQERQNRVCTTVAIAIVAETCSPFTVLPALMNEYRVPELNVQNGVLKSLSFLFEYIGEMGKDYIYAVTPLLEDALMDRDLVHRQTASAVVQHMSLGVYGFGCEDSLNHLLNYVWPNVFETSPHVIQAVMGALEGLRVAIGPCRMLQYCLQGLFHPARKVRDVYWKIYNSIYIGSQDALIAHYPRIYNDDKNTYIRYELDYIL

U2AF2, P26368 = variants of: B1; settings: with U2AF2, P26368
U2AF2, P26368, sequence (P26368 whole entry): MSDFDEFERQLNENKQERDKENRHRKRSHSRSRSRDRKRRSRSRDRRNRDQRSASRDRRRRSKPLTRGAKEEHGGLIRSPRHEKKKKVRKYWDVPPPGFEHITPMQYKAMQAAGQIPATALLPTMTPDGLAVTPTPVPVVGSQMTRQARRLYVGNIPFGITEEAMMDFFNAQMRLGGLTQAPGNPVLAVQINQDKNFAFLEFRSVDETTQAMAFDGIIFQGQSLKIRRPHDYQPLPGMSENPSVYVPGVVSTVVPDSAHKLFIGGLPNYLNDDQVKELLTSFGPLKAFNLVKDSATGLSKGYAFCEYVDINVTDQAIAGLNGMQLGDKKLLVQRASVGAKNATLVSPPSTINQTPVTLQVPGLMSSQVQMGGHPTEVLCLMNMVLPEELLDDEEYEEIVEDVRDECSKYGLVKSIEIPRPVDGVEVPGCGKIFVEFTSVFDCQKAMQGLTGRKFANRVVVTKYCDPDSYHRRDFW

Variant | effect of a mutation on the interaction (SF3B1, O75533-1) | effect of a mutation on the interaction (U2AF2, P26368)
MSLYDDLGVETSDSKTEGWSKNFKLLQSQLQVKKAALTQAKSQRTKQSTVLAPVIDLKRGGSSDDRQIVDTPPHVAAGLKDPVPSGFSAGEVLIPLADEYDPMFPNDYEKVVKRQREERQRQRELERQKEIEEREKRRKDRHEASGFARRPDPDSDEDEDYERERRKRSMGGAAIAPPTSLVEKDKELPRDFPYEEDSRPRSQSSKAAIPPPVYEEQDRPRSPTGPSNSFLANMGGTVAHKIMQKYGFREGQGLGKHEQGLSTALSVEKTSKRGGKIIVGDATEKDASKKSDSNPLTEILKCPTKVVLLRNMVGAGEVDEDLEVETKEQCEKYGKVGKCVIFEIPGAPDDEAVRIFLEFERVESAIKAVVDLNGRYFGGRVVKACFYNLDKFRVLDLAEQV [E329Q] | decreasing interaction | disrupting interaction
MSLYDDLGVETSDSKTEGWSKNFKLLQSQLQVKKAALTQAKSQRTKQSTVLAPVIDLKRGGSSDDRQIVDTPPHVAAGLKDPVPSGFSAGEVLIPLADEYDPMFPNDYEKVVKRQREERQRQRELERQKEIEEREKRRKDRHEASGFARRPDPDSDEDEDYERERRKRSMGGAAIAPPTSLVEKDKELPRDFPYEEDSRPRSQSSKAAIPPPVYEEQDRPRSPTGPSNSFLANMGGTVAHKIMQKYGFREGQGLGKHEQGLSTALSVEKTSKRGGKIIVGDATEKDASKKSDSNPLTEILKCPTKVVLLRNMVGAGEVDEDLEVETKEECEKYGKVGKCVIFEIPGAPDDEAVRIFLEFERVESAIKAVVDLNGAYFGGRVVKACFYNLDKFRVLDLAEQV [R375A] | disrupting interaction | disrupting interaction
MSLYDDLGVETSDSKTEGWSKNFKLLQSQLQVKKAALTQAKSQRTKQSTVLAPVIDLKRGGSSDDRQIVDTPPHVAAGLKDPVPSGFSAGEVLIPLADEYDPMFPNDYEKVVKRQREERQRQRELERQKEIEEREKRRKDRHEASGFARRPDPDSDEDEDYERERRKRSMGGAAIAPPTSLVEKDKELPRDFPYEEDSRPRSQSSKAAIPPPVYEEQDRPRSPTGPSNSFLANMGGTVAHKIMQKYGFREGQGLGKHEQGLSTALSVEKTSKRGGKIIVGDATEKDASKKSDSNPLTEILKCPTKVVLLRNMVGAGEVKEDLEVETKEECEKYGKVGKCVIFEIPGAPDDEAVRIFLEFERVESAIKAVVDLNGRYFGGRVVKACFYNLDKFRVLDLAEQV [D319K] | disrupting interaction | disrupting interaction
MSLYDDLGVETSDSKTEGWSKNFKLLQSQLQVKKAALTQAKSQRTKQSTVLAPVIDLKRGGSSDDRQIVDTPPHVAAGLKDPVPSGFSAGEVLIPLADEYDPMFPNDYEKVVKRQREERQRQRELERQKEIEEREKRRKDRHEASGFARRPDPDSDEDEDYERERRKRSMGGAAIAPPTSLVEKDKELPRDFPYEEDSRPRSQSSKAAIPPPVYEEQDRPRSPTGPSNSFLANMGGTVAHKIMQKYGFREGQGLGKHEQGLSTALSVEKTSKRGGKIIVGDATEKDASKKSDSNPLTEILKCPTKVVLLRNMVGAGEVAAALEVETKEECEKYGKVGKCVIFEIPGAPDDEAVRIFLEFERVESAIKAVVDLNGRYFGGRVVKACFYNLDKFRVLDLAEQV [D319A;E320A;D321A] | disrupting interaction strength | disrupting interaction strength
